Source: patent publication US20260116980A1 (BEONE MEDICINES I, published 2026)
Positions count from the first letter of the chain named. Names may count otherwise. Each block holds one binder with its values, some of them ahead of it.

Experiments:
[1] = molecular target: T1, cyno B7H3 on overexpressing cells (cyno, UniProt A0A7N9CYV2 29-534); assay: FACS on cyno B7H3 overexpressing cells
T1 sequence: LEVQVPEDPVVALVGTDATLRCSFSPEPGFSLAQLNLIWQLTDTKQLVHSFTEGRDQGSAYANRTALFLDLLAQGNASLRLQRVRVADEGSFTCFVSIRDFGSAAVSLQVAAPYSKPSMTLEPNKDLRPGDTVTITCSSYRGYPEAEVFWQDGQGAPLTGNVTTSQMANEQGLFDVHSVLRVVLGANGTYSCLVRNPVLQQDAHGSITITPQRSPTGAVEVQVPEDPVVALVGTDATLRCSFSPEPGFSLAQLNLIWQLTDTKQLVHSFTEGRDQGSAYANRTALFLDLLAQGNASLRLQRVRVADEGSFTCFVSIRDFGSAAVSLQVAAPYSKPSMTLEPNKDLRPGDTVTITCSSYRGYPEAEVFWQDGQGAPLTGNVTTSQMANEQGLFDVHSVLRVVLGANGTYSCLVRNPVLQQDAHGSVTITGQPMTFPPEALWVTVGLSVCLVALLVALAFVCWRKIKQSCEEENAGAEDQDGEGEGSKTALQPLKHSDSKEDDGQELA
Protocol: (§1) The binding affinity of anti-B7H3 mAb to human 4Ig-B7H3 and cyno B7H3 overexpressing cell lines were determined by FACS. Briefly, human or cyno B7H3 overexpressing cells were incubated with serially diluted purified antibodies, washed, and incubated with anti-mouse IgG secondary Ab conjugated to APC. After incubation and washing, fluorescence was measured by flow cytometry.

human ECD-4Ig-B7H3-hFc = molecular target: T2, human ECD-4Ig-B7H3-hFc (human, UniProt Q5ZPR3 29-466); assay: SPR (BIAcore T-200), antibody captured by anti-mouse IgG Fc, antigen in flow, 1:1 Langmuir model
T2 construct: also called Human B7H3; human B7H3 antigen
T2 sequence: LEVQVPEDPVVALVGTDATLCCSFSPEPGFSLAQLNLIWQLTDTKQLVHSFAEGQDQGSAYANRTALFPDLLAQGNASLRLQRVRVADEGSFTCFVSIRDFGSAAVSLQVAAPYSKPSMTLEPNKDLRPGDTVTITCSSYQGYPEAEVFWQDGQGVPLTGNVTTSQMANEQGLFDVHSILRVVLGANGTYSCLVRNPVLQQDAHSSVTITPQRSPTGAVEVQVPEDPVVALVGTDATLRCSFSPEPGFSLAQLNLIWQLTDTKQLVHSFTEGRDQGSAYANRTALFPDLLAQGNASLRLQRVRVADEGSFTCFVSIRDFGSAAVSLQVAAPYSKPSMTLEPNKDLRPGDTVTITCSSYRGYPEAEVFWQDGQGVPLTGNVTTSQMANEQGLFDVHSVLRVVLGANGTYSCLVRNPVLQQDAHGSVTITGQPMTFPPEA
Text: After immobilization, serial dilutions of the ectodomain of human or cyno B7H3 were passed over the chip. […] Thus, the light gray lines are serial dilutions of human B7H3 protein, and the dark gray lines are fitted curves corresponding to different human B7H3 concentrations. The dotted line is the highest concentration of B7H3 protein. The results were used to calculate the rates of association (Kon) and dissociation (Koff) for BGA-3295.
Briefly, anti-mouse IgG Fc antibody was immobilized on an activated CM5 biosensor chip (Cat. No. BR100530, GE Life Sciences). Purified antibodies were flowed over the chip surface and captured by anti-mouse IgG Fc antibody. Then a serial dilution of human ECD-4Ig-B7H3-hFc was flowed over the chip surface and changes in surface plasmon resonance signals were analyzed to calculate the association rates (kₒₙ) and dissociation rates (koff) by using the one-to-one Langmuir binding model (BIA Evaluation Software, GE Life Sciences). The equilibrium dissociation constant (KD) was calculated as the ratio koff/kₒₙ.

[2] = molecular target: T3, human 4Ig-B7H3 on overexpressing cells (NK92mi/B7H3) (human, UniProt Q5ZPR3 29-534); assay: FACS on human 4Ig-B7H3 overexpressing cells
T3 construct: also called Human B7H3; native B7H3
T3 sequence: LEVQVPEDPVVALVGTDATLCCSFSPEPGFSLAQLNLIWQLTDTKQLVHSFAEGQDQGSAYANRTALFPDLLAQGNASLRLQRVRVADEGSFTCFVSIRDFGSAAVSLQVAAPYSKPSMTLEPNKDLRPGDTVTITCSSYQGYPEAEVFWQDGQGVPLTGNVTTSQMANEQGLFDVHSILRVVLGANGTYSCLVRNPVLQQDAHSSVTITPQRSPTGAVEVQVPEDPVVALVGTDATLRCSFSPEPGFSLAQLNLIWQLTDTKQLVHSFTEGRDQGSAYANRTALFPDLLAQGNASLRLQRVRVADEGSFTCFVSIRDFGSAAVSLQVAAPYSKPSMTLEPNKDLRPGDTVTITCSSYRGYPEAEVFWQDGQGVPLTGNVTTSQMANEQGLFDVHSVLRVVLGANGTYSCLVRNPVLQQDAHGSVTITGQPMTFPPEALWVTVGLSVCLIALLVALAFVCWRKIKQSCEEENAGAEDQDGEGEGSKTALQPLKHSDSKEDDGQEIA
Protocol: as §1

[3] = molecular target: T3, human 4Ig-B7H3 on overexpressing cells …; assay: FACS on live NK92mi/B7H3 cells, goat anti-human IgG detection, Test1
Protocol: (§2) Goat anti-human IgG was used as the second antibody to detect antibody binding to the cell surface. EC₅₀ values for dose-dependent binding to human native B7H3 were determined by fitting the dose-response data to the four-parameter logistic model with GraphPad Prism.

[4] = molecular target: T4, ECD of human 4Ig-B7H3 (Sinobiological, Cat: 11188-H08H) (human, UniProt Q5ZPR3 29-466); assay: SPR, antibody captured on anti-human Fc surface, Test 1
T4 construct: Bought protein; also called recombinant B7H3
T4 sequence: T2 sequence
Text: (§3) For affinity determination, antibodies were captured by an anti-human Fc surface, and used in the affinity-assay based on surface plasmon resonance (SPR) technology. The results of SPR-determined binding profiles of anti-B7H3 antibodies to the ECD of human 4Ig-B7H3 (Sinobiological, Cat: 11188-H08H) are summarized in Table 5.

[5] = molecular target: T4, ECD of human 4Ig-B7H3 (Sinobiological, …); assay: SPR, antibody captured on anti-human Fc surface, Test 2
Text: as §3

[6] = molecular target: T3, human 4Ig-B7H3 on overexpressing cells …; assay: FACS on live NK92mi/B7H3 cells, goat anti-human IgG detection, Test2
Protocol: as §2

EC50 [1]: 1.32 nM
Kd (human ECD-4Ig-B7H3-hFc): 0.0124 nM
koff (human ECD-4Ig-B7H3-hFc): 4.49e-06 s⁻¹
kon (human ECD-4Ig-B7H3-hFc): 363000 M⁻¹ s⁻¹
EC50 [2]: 1.91 nM
B1: BGA-3726 (purified anti-B7H3 mAb as used in Examples 2-4) (antibody, V domains shown)
VH: QVQLQESGPGLVKPSGTLSLTCAVSGGSISTSNWWNWVRQSPGKGLEWIGEIYPTGNTNYSPSLKSRVTISIDKSKNQFSLKLNSVTAADTAVYYCARGWNWFDPWGQGTLVTVSS
VL: EIVLTQSPGTLSLSPGERATLSCRTSQSINGILLAWYQQKPGQAPRLLIYGASSRATGIPDRFSGSGSGTDFTLSISRLEPEDFAVYYCQQYGSSPRTFGQGTKVEIK
notes: It was captured by anti-mouse IgG Fc in SPR and detected with anti-mouse IgG in FACS; The source mice make human variable and rat constant regions; also called BGA-3276

EC50 [3]: 1.44 nM
Kd [4]: 0.424 nM
koff [4]: 0.000136 s⁻¹
kon [4]: 321000 M⁻¹ s⁻¹
Kd [5]: 0.47 nM
koff [5]: 0.000207 s⁻¹
kon [5]: 442000 M⁻¹ s⁻¹
B2: BGA-3726 in human full-length format (human IgG1 variant IgG1mf / kappa) (antibody, V domains shown)
VH: B1 VH
VL: EIVLTQSPGTLSLSPGERATLSCRTSQSINGILLAWYQQKPGQAPRLLIYGASSRATGIPDRFSGSGSGTDFTLSISRLEPEDFAVYYCQQYGSSPRTFGQGTKVEIKR

Kd [4]: 0.308 nM
koff [4]: 0.000128 s⁻¹
kon [4]: 414000 M⁻¹ s⁻¹
B3: BGA-4265 (BGA-3726 variant comprising G30A in LCDR1) (antibody, human IgG1, kappa, V domains shown)
VH: B1 VH
VL: B2 VL with G31A

EC50 [6]: 1.45 nM
Kd [5]: 1.11 nM
koff [5]: 0.000326 s⁻¹
kon [5]: 295000 M⁻¹ s⁻¹
B4: BGA-5488 (W34Y in HCDR1, W96Y and W98Y in HCDR3 and G30A in LCDR1 based on BGA-3726) (antibody, human IgG1, kappa, V domains shown)
VH: B1 VH with W34Y, W100Y, W102Y
VL: B2 VL with G31A

Kd [4]: 0.596 nM
koff [4]: 0.000171 s⁻¹
kon [4]: 288000 M⁻¹ s⁻¹
B5: BGA-4826 (BGA-3726 variant comprising W34Y in HCDR1) (antibody, human IgG1, kappa, V domains shown)
VH: B1 VH with W34Y
VL: B2 VL

kon [4]: 142000 M⁻¹ s⁻¹
B6: BGA-4269 (BGA-3726 variant comprising W98Y in HCDR3) (antibody, human IgG1, kappa, V domains shown)
VH: B1 VH with W102Y
VL: B2 VL

Kd [4]: 0.635 nM
koff [4]: 0.000237 s⁻¹
kon [4]: 373000 M⁻¹ s⁻¹
B7: BGA-4380 (BGA-3726 variant comprising N29Q in LCDR1) (antibody, human IgG1, kappa, V domains shown)
VH: B1 VH
VL: B2 VL with N30Q

Kd [4]: 0.632 nM
koff [4]: 0.000199 s⁻¹
kon [4]: 315000 M⁻¹ s⁻¹
B8: BGA-4498 (BGA-3726 variant comprising W96Y in HCDR3) (antibody, human IgG1, kappa, V domains shown)
VH: B1 VH with W100Y
VL: B2 VL

EC50 [6]: 1.19 nM
Kd [5]: 0.443 nM
koff [5]: 0.000224 s⁻¹
kon [5]: 506000 M⁻¹ s⁻¹
B9: BGA-6938 (W34Y in HCDR1, W96Y in HCDR3 and G30A in LCDR1 based on BGA-3726), human IgG1 variant IgG1mf / kappa format (antibody, V domains shown)
VH: B1 VH with W34Y, W100Y
VL: B2 VL with G31A
